Source: patent US6210671A, “Humanized antibodies reactive with L-selectin” (Protein Design Labs, Inc., priority 1995, dated 2001)

Legend:
[1] = tested on: binding of human neutrophils to IL-1 stimulated human umbilical cord endothelial cells (HUVEC); experiment: Adhesion of human neutrophils to IL-1 stimulated HUVEC; assay type: cell-based; settings: HUVEC stimulated with 20 ng/ml IL-1β for 4 hr; 4° C., 30 min
Protocol: FIG. 5A. Binding of human neutrophils to IL-1 stimulated human umbilical cord endothelial cells (HUVEC). The neutrophils were first treated with irrelevant control antibody, mouse DREG-200 antibody, or humanized IgG1 DREG-200 antibody, or left untreated, as indicated.
The ability of the mouse and humanized DREG-200 antibodies to block the adhesion of human neutrophils to endothelial cells was determined using a modification of the assay method of Hallmann et al., Biochem. Biophys. Res. Comm. 174:236 (1991). Specifically, human umbilical cord endothelial cells (HUVEC; from Clonetics, San Diego) were grown to confluence in EGM medium (Clonetics) in Lab-Tek 8-chamber slides (Nunc, Naperville, Ill.). The HUVEC cells were stimulated with 20 ng/ml IL-1β (R&D Systems, Minneapolis, Minn.) for 4 hr before use. Neutrophils were isolated by density gradient centrifugation from buffy coats that had been cleared of erythrocytes by dextran sedimentation, and then adjusted to 10^7 per ml. The neutrophils (100 μl) were pre-incubated for 20 minutes on ice with varying concentrations of antibody (in 100 μl RPMI). The HUVEC slides were washed free of IL-1β and placed on a rotary shaker (100 rpm) at 4° C. […] Neutrophil adherence was quantified by counting the neutrophils attached to a defined area of the endothelial cell monolayer with a microscope.

[2] = tested on: rabbit leukocytes; settings: reported in the literature; cited from earlier work
[3] = tested on: binding of human lymphocytes to peripheral lymph node high endothelial venules; settings: Kishimoto et al.; cited from earlier work
[4] = tested on: binding of human neutrophils to stimulated human umbilical vein endothelial cells; settings: Kishimoto et al., Blood 78:805 (1991); cited from earlier work
[5] = tested on: L-selectin; experiment: Competitive binding of mouse and humanized DREG-55 to CHO L-selectin cells; settings: 2 hr at 4° C.
Protocol: FIG. 9: Competitive binding of mouse and humanized DREG-55 antibodies to CHO^L-selectin cells expressing L-selectin. Increasing concentrations of cold competitor antibody were incubated with the cells in the presence of radiolabeled tracer humanized DREG-55 antibody, and the ratio of bound/free radioactivity was determined.
The affinity of the humanized DREG-55 antibody for L-selectin was determined by competition with the radio-iodinated humanized DREG-55 antibody (FIG. 9). Purified humanized DREG-55 antibody was labeled with Na^125 I (Amersham, Arlington Heights, Ill.) using lactoperoxidase to 4 mCi/mg of protein (Marchalonis, Biochem. J. 113, 299 (1969)). CHO^L-selectin cells, which were obtained by transfecting the L-selectin genes into the host CHO cells, were used as a source for L-selectin. […] Cells were then washed and centrifuged, and their radioactivities measured. The ratio of bound and free tracer antibody were calculated. The binding affinities were calculated according to the methods of Berzofsky and Berkower (J. A. Berzofsky and I. J. Berkower, in Fundamental Immunology (ed. W. E. Paul), Raven Press (New York), p. 595 (1984), which is incorporated herein by reference).

[6] = tested on: L-selectin; experiment: Flow cytometry binding to L1-2 L-selectin transfectants; settings: 1 hour incubation; FITC-conjugated goat anti-human Ig
Protocol: FIG. 8: Binding of humanized DREG-55 to L1-2^L-selectin transfectants compared to binding of control antibody as analyzed by flow cytometry. Fluorescence intensity is indicated on the x-axis.
After washing, cells were incubated in a 1:250 dilution of FITC-conjugated goat anti-human Ig, washed, then analyzed for fluorescence by flow cytometry (FACS).

[7] = tested on: binding of human PBMC to peripheral lymph node high endothelial venules; experiment: Adhesion of human PBMC to peripheral lymph node high endothelial venules; assay type: cell-based; settings: frozen sections of mouse peripheral lymph nodes; 25 minutes
Protocol: FIG. 10: Inhibition of binding of human PBMC to peripheral lymph node high endothelial venules by humanized DREG-55 (HuDREG-55) and humanized DREG-200 (HuDREG-200). The average number of cells bound per HEV for each antibody treatment is shown. Error bars show the standard errors of the values calculated for three sections.
Human peripheral blood mononuclear cells were isolated and cultured for 2 days at 37° C. in 10% FBS/DMEM. After washing and resuspending in assay medium (5% FBS/DMEM/10 mM HEPES, pH 6.9) at 7×10^6 /ml in the presence of the indicated concentrations of humanized DREG-55, humanized DREG-200 or negative control antibody, cells were applied to frozen sections of mouse peripheral lymph nodes (PLN) while rotating at 50 rpm (as described in Streeter et al., Cell 107, 1853 (1988)). After 25 minutes, non-adherent cells were gently dumped and adherent cells fixed to sections by immersion in 1.5% glutaraldehyde-PBS. Slides were counterstained with thionine and the number of cells bound to each high endothelial venule (HEV) (n=60) in triplicate sections was determined microscopically. The average number of cells bound per HEV for each treatment was calculated.

[8] = tested on: human L-selectin; experiment: Competitive binding of mouse and humanized DREG-200 antibodies against 125I-labeled mouse DREG-200 on transfected cells; settings: competition with radio-iodinated mouse DREG-200; 1 hr at 4° C.
Protocol: FIG. 4. Competitive binding of mouse and humanized IgG1 and IgG4 DREG-200 antibodies. The target cells were L2-1 cells, a mouse pre-B cell line, that was transfected with a human L-selectin gene and thus expresses human L-selectin (Berg et al., Biochem. Biophys. Res. Comm. 184:1048 (1992)). 5×10^5 cells were incubated with 3 ng of ^125 I-labeled tracer mouse antibody (2 μCi/μg), together with increasing amounts of mouse or humanized competitor antibody as indicated in 0.2 ml of binding buffer (PBS+2% FBS+0.1% azide) for 1 hr at 4° C. Cells were washed and pelleted, and their bound radioactivity measured. The concentrations of bound and free tracer antibody were calculated.
The affinity of the humanized DREG-200 antibodies for L-selectin were determined by competition with the radio-iodinated mouse DREG-200 antibody (FIG. 4). The binding affinities were calculated according to the methods of Berzofsky (J. A. Berzofsky and I. J. Berkower, in Fundamental Immunology (ed. W. E. Paul), Raven Press (New York), 595 (1984), which is incorporated herein by reference in its entirety for all purposes).

[9] = tested on: cat leukocytes; settings: reported in the literature; cited from earlier work

| Molecule | blocking of binding of human lymphocytes to peripheral lymph node high endothelial venules [3] | blocking of binding of human neutrophils to stimulated human umbilical vein endothelial cells [4] | adhesion of human PBMC to lymph node high endothelial venules [7] | other results |
| --- | --- | --- | --- | --- |
| mouse DREG-200: mouse monoclonal antibody that binds to human L-selectin (Kishimoto et al.); CDR donor [reference compound] | partially or completely block | partially or completely block |  | blocking of binding of neutrophils to HUVEC [1]: effectively blocked; cross-reactivity with rabbit leukocytes [2]: cross-reactivity |
| mouse DREG-55: mouse monoclonal antibody that binds to human L-selectin (Kishimoto et al.); CDR donor (antibody, V domains shown) VH: MNFGSSLIFLVLVLKGVQCEVKLVESGGGLVKPGGSLKLACAASGFTFSTYAMSWVRQTPEKRLEWVASISTGGSTYYPDSVKGRFTISRDNARNILYLQMSSLRSEDTAMYYCARDYDGYFDYWGQGTTLTVSS VL: METDTILLWVLLLWVPGSTGDIVLTQSPASLSVSLGERASISCKASQSVDYDGDSYMNWYQQKPGQPPKLLIYAASNLESGIPARFSGSGSGTDFTLNIHPVEEEDAATYYCQQSNEDPWTFGGGTKLEIK | partially or completely block | partially or completely block |  | affinity for L-selectin compared with humanized DREG-55 [5]: no significant difference |
| humanized DREG-55: humanized anti-L-selectin antibody, mouse DREG-55 CDRs in human Gal framework, sequences in FIG. 7 (antibody, V domains shown) VH: MNFGSSLIFLVLVLKGVQCEVQLVESGGGLVQPGGSLRLSCAASGFTFSTYAMSWVRQAPGKGLEWVASISTGGSTYYPDSVKGRFTISRDNAKNTLYLQMNSLRAEDTAVYYCARDYDGYFDYWGQGTLVTVSS VL: METDTILLWVLLLWVPGSTGDIQMTQSPSSLSASVGDRVTITCKASQSVDYDGDSYMNWYQQKPGKAPKLLIYAASNLESGIPSRFSGSGSGTDFTLTISSLQPEDFATYYCQQSNEDPWTFGQGTKVEIK |  |  | block adhesion | binding to L1-2 L-selectin transfectants by flow cytometry [6]: reacts |
| humanized DREG-200: humanized anti-L-selectin antibody, mouse DREG-200 CDRs in human Eu framework, sequences in FIG. 2; isotype not stated at these places (antibody, V domains shown) VH: MGWSCIILFLVATATGVHSQVQLVQSGAEVKKPGSSVKVSCKASGYTFTSYVMHWVRQAPGQGLEWIGYIYPYNDGTKYNEKFKGRVTITSDESTNTAYMELSSLRSEDTAVYYCAREEYGNYVRYFDVWGQGTLVTVSS VL: MVFTPQILGLMLFWISASRGDIQMTQSPSTLSASVGDRVTITCKSSQSLLNSSNQKNYLAWYQQKPGKAPKLLVYFASTRESGVPDRFIGSGSGTDFTLTISSLQPEDFATYFCHQHYSTPLTFGQGTKVEVK |  |  | block adhesion | affinity relative to the mouse DREG-200 antibody [8]: ≤ 2 fold; cross-reactivity with cat leukocytes [9]: cross-reactivity |
